The values that follow come from patent US20190112367A1.

Experiment [1] concerns the target human IL-32gamma (R&D) (human) (UniProt P24001). Nature of the experiment: cell-based or functional assay.
Experiment [2] has the same target. Nature of the experiment: ELISA, antigen coated at 1 µg/ml, serial dilutions of MAB.
Experiment [3] concerns the target IL-32 (isotype not stated, analyte of the SPR experiment) (UniProt P24001). Nature of the experiment: SPR, ProteOn XPR36, IL-32 injected over the antibody. On the technique in general: In SPR one partner is held on a chip, and binding of the other changes the refractive index at the surface.

B1: anti-IL-32 antibody 2C2 (IgG3, lambda) (antibody, V domains shown)
VH: QLRVQESGPGLLKPAETLSLTCSVSSGSVSNSRYYWAWIRQSPGKGLEWIGSMYYRGRSYYNPSLKSRLTISIDTSKNQFSLKLTSLTAADTAVYYCAAAVYHDLDYWGQGTLVTVSS
VL: QSVLTQPPSVSAAPGQKVTISCSGSGSSIGNNYVSWYQQLPGAAPKLLIYDNTKRPSGIPDRFSGSKSGTSATLAITGLQPGDAADYYCGTWDSSFSVFWVFGGGTKLTVLS
In experiment [1], B1 registered an IC 50 (neutralization of IL-32γ activity) of 0.3 mg/L. Moreover, in experiment [2], the EC50 amounted to 0.526 mg/L. The Kd in experiment [3] was 4 nM.

B2: anti-IL-32 antibody 26A6 (IgG1, lambda) (antibody, V domains shown)
VH: QVQLVESGGGVVQPGRSLRLSCVASGLTFRTYGMHWVRQAPGNGLEWVAIIWHDGNKKYFADSVKGRFTISRDNSKNSLYLQMNSLRVEDTAVYYCAREMNGIDVWGQGTTVTVSS
VL: SYELTQPPSVSVSPGQTARITCSGDALPETYVYWYQQKSGQAPVKLIYEDSERPSGIPERFSGSSSGTLATLTISGAHVEDEADYYCYSTDSSGIGVFGGGTKVTVLS
B2 registered an EC50 in experiment [2] of 1.33 mg/L.

One may read the EC50 as the concentration that produces a half-maximal response. The low end stands for a more potent agent, the high end for a less potent agent. The Kd is a measure of binding affinity in units of concentration. Read a low Kd as tighter binding.
